The sequences below were run on Saccharomyces cerevisiae (assay: transcriptional activation domain activity (GFP:mCherry ratio, weighted mean of sorted bins, harmonized to initial dataset scale) (arbitrary fluorescence ratio units); higher = stronger transcriptional activation). Conditions: beta-estradiol 1 µM; induction time 4 h.
Method: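 53-aa protein tiles (fungal proteins plus yeast TF control tiles) fused C-terminally to a DBD-estrogen-binding domain-mCherry synthetic TF, integrated in S. cerevisiae (URA3 locus) with a GFP reporter. Cells were induced with 1 uM beta-estradiol for 4 h at 30 C, FACS-sorted into 8 bins by GFP:mCherry ratio and barcodes sequenced. Activity is the read-weighted mean bin fluorescence (GFP:mCherry), averaged over barcodes (median 12); tiles under 50 reads were discarded. New active-learning values were harmonized by linear fit onto the scale of the initial (Hummel et al.) dataset. The assay saturates at low and high signal.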

| Sequence | transcriptional activation domain activity |
| --- | --- |
| AAAAAAAAAAAAAAAAAAAAAAAAAAAQQRRRQQQQQRRGSSAAARRQQQQQR | 22600 |
| AAAAAAAAETAADEKPAEEAGEPPAAEPEAAEPAKEEAAPAEEAAAAEAVPAP | 54300 |
| AAAAAAAASNSYAIPENELLDEDTMNFISSLKNDLSNISNSLPFEYPHEIAEA | 123000 |
| AAAAAAAEGDGEGKGKEDGEDKEKEGGNGEAEAEAGAEGKKAAAGAAQKESSN | 35100 |
| AAAAALRTEETADSAGQLAEAGCRSVDTADTAEGCLEEMAVVVVAVASSVGAM | 55600 |
| AAAAAPATTTTESAPAPAAEAAKPAEEAKPAATEAAPAADATAAAPAPAPAAA | < 6570 |
| AAAAGVPIASDESETEVEEEGSSSADIGQAATTGRGRSPPKQQQQQQSVAAVS | 38500 |
| AAAAKPASGAKTGGKGKGAKSKKSKATVESEDEGEGADGAPAKKKTKKGKTSD | 44200 |
| AAAAREKAEAERKEKAEKEERERLEREKREVEAERKKVAAAAARAEKEKAKAA | 13400 |
| AAAASSTPCLRRRPAPAPATARSSAARPAGCSCGGRSRRCGGRRTPSPSRRGP | 20300 |
| AAAATGSKRKADDASDEEQEEGDKEGDNNKGEKQGGEPAGKKQKQTAGVKRVV | 27500 |
| AAADAEVDELEDGTADADGAKPKKRKRGGDADGKPKSARKDAPAAAKKKGGAA | 36500 |
| AAAGAADEAKTSSSPNGTKEAAVASSGGEKPAAAGVAGAPNSQSQTGAQPTKK | 28700 |
| AAAGAREVKHPAAKKQKKIEGGSETKDEEEKSSSKKRQKSESKSKSKSKSKSK | 28300 |
| AAAGNATAEAGAAEGKAKGKGKDAAAAEGAAAAGGAAAAEGKAKGKGKDAAAA | 46600 |
| AAAGRRGPGKRKGSRTSPGTAGGGGGRGGRGGGGRGGGARGGGAGGEAAGGAT | 29900 |
| AAAKAAPAIEEEPQEEQPEEPDKAAAPKKRGRKRKSSGVGAATAAAAAVPRGP | 9830 |
| AAAKAKDNIKEEDEADELAPVKKTAKKRGPKAQDVDGEGAPKKKPRGRPAKKA | 17000 |
| AAAKPVATKSSSKAKTPAAASISKSKAKPVAAAARGGGKKRKVASSPAPSVVA | 9030 |
| AAAPAAAANDGTTKKKGKGQKATRSPKGKGKSKKKGKGAAAAAAAPAAAKAVS | 14600 |

| Sequence | transcriptional activation domain activity |
| --- | --- |
| AAAPAAANDGFHEVHHNRGGRGRGGHQGEGRGGYRGRGGPRGEFRGRGRGRGR | 42000 |
| AAAPAPEPAPKKGRPGRKPAAKSEPEAVEEKTEDAPKKRGRRSTLIPEPVEET | < 6570 |
| AAAPDVENEPAGRRKAAAAGVEQGGGHPHMLKGVCGNAGWGDAQAAAGKACKG | 26900 |
| AAAPRAKNAPRGKKQTAAKTAPEPEPEPEAEPAPAPKPRGRQKKTVKASAPEV | 20800 |
| AAARAPHVAPAPPDARPKSKKRKSSSPDDGRAPAKSRRLSPARAAPAKPKHRR | 12300 |
| AAASAPAPQNDGFSEVQHSRGGRGRGGHPSGERGGYRGRGRGGPRGDFGGRGR | 49600 |
| AAATAEGAASSRQPSERERKREREREEERERGKEREREKERKQAAEASTSANE | 58800 |
| AAATATGAAPPGAPGEGPPKVKRGRKPKPKNLPPSDPNASTTATPGTSAPGSQ | 32500 |
| AAATTADAKPASSAADKASSSVAAASAGQATASTDSGTAKAEKKKKGKAAAVA | 8920 |
| AAAVAAKKPEEKKEETPAEAATEAPKEEAKEEKKEEKAATKSRSQSRKRTSIF | < 6570 |
| AAAVAVAREHVQKEVVATVTVAKEHVQKEEVVAAVAVAREHAQKEVVATVAVA | 56000 |
| AAAVEKTEEEKPVAAAAAPAAEKEKAPAAKAKKATTTKKAAAPKKAAAPKAKK | 27700 |
| AADADEDDEDAPKKAPKKPAKRGRKKADDDDEEPEEEAQPAKKKAKGGRKAKK | 47700 |
| AADGSPAPRPNAICIHEVDQGIQWKHTNHRTGKAVVVRKRQLVLQQIITVANY | 44500 |
| AADQVQDTAGQAVNQVGDTAGKALGGLTGGGKKEQGGEEEGGGEQLRLRLELN | 35700 |
| AAEDGKKGDKAEVGKRGDKAEVKKVKKVDGEEAGGEKVVVEKKAGAEQKAVKA | 17500 |
| AAEDVEGEGEAKEKKSKKRRAEANGVGEGEEGERKKKKRKEKAVEQTEEEVKP | 34800 |
| AAEEAAVADGECPSKKKRQAELSKQISAKWKGLSPEDRRYWDTLAKEKKREHE | 19500 |
| AAEEAVKVAVVVEGAKKRRGRPRKDAVDEEGTVLGALADATNTQTATAAPVPM | 24300 |

Reference: the supplement of paper PMC12636428
